This is an account of results in publication PMC7474069, “Cystathionine β-synthase is involved in cysteine biosynthesis and H2S generation in Toxoplasma gondii” (Scientific Reports, 2020).

“And” between values parts separate entries of the source, which are not always exact repeats. Equal entries are not always repeated.

One series relates to N[C@@H](CO)C(=O)O. The experiment in a line: purified protein. To be noted: CBS coupled-assay conditions (MBP buffer pH 9; 37 °C).
Series [1] has as its system N[C@@H](CCSC[C@H](N)C(=O)O)C(=O)O. In words: purified protein. To be noted: CBS coupled-assay conditions (MBP buffer pH 9; 37 °C).
Series [2] addresses T1, TgCBS (Toxoplasma gondii, UniProt A0A125YSJ9).
T1 construct: gene TGME49_259180; mainly dimer with some tetramer; no heme, PLP at Lys56
T1 sequence (A0A125YSJ9 1-514): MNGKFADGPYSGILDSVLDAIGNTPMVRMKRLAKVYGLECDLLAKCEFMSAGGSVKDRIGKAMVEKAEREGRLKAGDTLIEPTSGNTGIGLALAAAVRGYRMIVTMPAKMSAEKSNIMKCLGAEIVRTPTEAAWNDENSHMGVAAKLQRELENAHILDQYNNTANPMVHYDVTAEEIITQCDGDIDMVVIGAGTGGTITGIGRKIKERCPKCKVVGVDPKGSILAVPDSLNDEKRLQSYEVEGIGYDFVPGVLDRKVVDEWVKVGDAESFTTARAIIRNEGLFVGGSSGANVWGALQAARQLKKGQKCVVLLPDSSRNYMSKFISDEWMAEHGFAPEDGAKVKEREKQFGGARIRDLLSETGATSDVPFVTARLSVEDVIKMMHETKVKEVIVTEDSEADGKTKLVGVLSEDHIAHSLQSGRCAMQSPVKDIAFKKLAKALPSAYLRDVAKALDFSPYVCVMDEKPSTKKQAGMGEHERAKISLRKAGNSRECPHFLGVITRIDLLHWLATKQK
The experiment in a line: CD spectroscopy (external aldimine formation). The note with it: 25 mM; 20 mM sodium phosphate pH 8.5; 25 °C; substrate analog. Type of series: binding.

Series [3] deals with T1, TgCBS. The experiment in a line: intrinsic fluorescence titration of apo-enzyme. Type of series: binding.
For series [4], the target named is T1, TgCBS. The experiment in a line: CD spectroscopy (aminoacrylate formation). Type of series: binding. To be noted: 3 mM; 20 mM sodium phosphate pH 8.5; 25 °C.
The target in series [5] is T1, TgCBS. In words: lead acetate H2S assay, substrate competition. It is filed as biochemical. An excerpt: lead acetate H2S assay, substrate competition on TgCBS | The IC50 value, i.e. the concentration of L-Ser at which the H2S production
Series [6] has as its target T1, TgCBS. In words: lead acetate H2S assay, biphasic fit. It is filed as biochemical. The note with it: substrate inhibition in beta-elimination; L-Cys alone; 50 mM Hepes pH 7.4; 37 °C; PLP 20 µM. From the text:
(§1) lead acetate H2S assay, biphasic fit on TgCBS

Substrate in series [7]: CC(=O)OC[C@H](N)C(=O)O
In words: purified protein. Type of series: biochemical, Toxoplasma gondii. The note with it: co-substrate L-Hcys, MBP buffer pH 9, 37 °C, PLP 20 µM.

Substrate in series [8]: N[C@@H](CO)C(=O)O
In words: purified protein. To be noted: co-substrate L-Hcys, MBP buffer pH 9, 37 °C, PLP 20 µM. Type of series: biochemical, Toxoplasma gondii.

Substrate in series [9]: N[C@@H](CCS)C(=O)O
In words: purified protein. It is filed as biochemical, Toxoplasma gondii. The note with it: co-substrate L-Ser, MBP buffer pH 9, 37 °C, PLP 20 µM.

Substrate in series [10]: N[C@@H](CS)C(=O)O
In words: lead acetate H2S assay, biphasic fit. The note with it: beta-elimination of L-Cys alone, site 1, 50 mM Hepes pH 7.4, 37 °C, PLP 20 µM. Type of series: biochemical, Toxoplasma gondii.
From the text: as §1

Series [11] deals with the molecule itself. The experiment in a line: SEC; Superdex 200 10/30 GL, TgCBS at 1 mg/mL, 20 mM sodium phosphate pH 8.5, 150 mM NaCl, 0.1 mM DTT; masses from a calibration curve of standard proteins. (Size exclusion chromatography separates by hydrodynamic size, large species first.)

For orientation: Km means the concentration of substrate that gives half-maximal velocity. By kcat is commonly meant the number of substrate molecules converted per active site and unit of time at saturation. One may read the Kd as the constant that tells how readily two partners part at equilibrium. A lower Kd goes with tighter binding. In general, IC50 refers to the concentration that gives 50% inhibition. Broadly, the kcat/Km is the turnover number divided by the Michaelis constant. Broadly, the stoichiometry N is a count of units in the complex or per binding partner.

Consider “recombinant CBL (Corynebacterium diphtheriae NCTC 13129)”, for which, in the series on N[C@@H](CO)C(=O)O, the Km was determined as 7500 ± 1400 µM and the kcat stood at 1.2 ± 0.2 s⁻¹. Moreover, in [1], the Km came out at 800 ± 100 µM and the kcat came to 93 ± 2 s⁻¹.
Turning to `C[C@H](N)C(=O)O` [L-Ala], the “CD spectroscopy (external aldimine formation)” value on TgCBS [2] is “Addition of the analog L-alanine (L-Ala) to TgCBS resulted in a shift”.
With `Cc1ncc(COP(=O)(O)O)c(C=O)c1O` [PLP], on TgCBS [3], the dissociation constant Kd was 0.00013 ± 1e-05 mM.
Turning to `NC(CSCC(N)C(=O)O)C(=O)O` (stereo not shown) [lanthionine], the “CD spectroscopy (aminoacrylate formation)” value at TgCBS [4] is recorded as “Binding of lanthionine to the enzyme”.
For `N[C@@H](CO)C(=O)O` [L-Ser], on TgCBS [5], the IC50 is 6.7 ± 1.3 mM.
On TgCBS [6], `N[C@@H](CS)C(=O)O` [L-Cys] yielded a TgCBS of 36 ± 4 mM.

B1: TgCBS (Toxoplasma gondii ME49) (protein)
chain: MNGKFADGPYSGILDSVLDAIGNTPMVRMKRLAKVYGLECDLLAKCEFMSAGGSVKDRIGKAMVEKAEREGRLKAGDTLIEPTSGNTGIGLALAAAVRGYRMIVTMPAKMSAEKSNIMKCLGAEIVRTPTEAAWNDENSHMGVAAKLQRELENAHILDQYNNTANPMVHYDVTAEEIITQCDGDIDMVVIGAGTGGTITGIGRKIKERCPKCKVVGVDPKGSILAVPDSLNDEKRLQSYEVEGIGYDFVPGVLDRKVVDEWVKVGDAESFTTARAIIRNEGLFVGGSSGANVWGALQAARQLKKGQKCVVLLPDSSRNYMSKFISDEWMAEHGFAPEDGAKVKEREKQFGGARIRDLLSETGATSDVPFVTARLSVEDVIKMMHETKVKEVIVTEDSEADGKTKLVGVLSEDHIAHSLQSGRCAMQSPVKDIAFKKLAKALPSAYLRDVAKALDFSPYVCVMDEKPSTKKQAGMGEHERAKISLRKAGNSRECPHFLGVITRIDLLHWLATKQK
notes: mainly dimer with some tetramer; no heme, PLP at Lys56
As to B1, the Michaelis-Menten constant (Km) worked out at 1300 ± 200 µM in the series “purified protein [7]”, 420 ± 40 µM in the series “purified protein [8]”, 230 ± 30 µM in the series “purified protein [9]” and 4700 ± 900 µM in [10]. For the same molecule, the turnover number (kcat) was 5.5 ± 0.1 s⁻¹ in “purified protein [7]”, 6.3 ± 0.4 s⁻¹ in the series “purified protein [8]”, 6.3 ± 0.4 s⁻¹ in the series “purified protein [9]” and 2.6 ± 0.3 s⁻¹ in series [10]. Further, the kcat/Km in the series “purified protein [7]” came to 4200 ± 700 M⁻¹ s⁻¹; in the series “purified protein [8]”, 15000 ± 2000 M⁻¹ s⁻¹; in “purified protein [9]”, 27000 ± 5000 M⁻¹ s⁻¹; in [10], 600 ± 200 M⁻¹ s⁻¹.

B2: Cystathionine β-synthase from Toxoplasma gondii (enzyme, Toxoplasma gondii (strain ME49), UniProt A0A125YSJ9 1-514, looked up)
chain: MNGKFADGPYSGILDSVLDAIGNTPMVRMKRLAKVYGLECDLLAKCEFMSAGGSVKDRIGKAMVEKAEREGRLKAGDTLIEPTSGNTGIGLALAAAVRGYRMIVTMPAKMSAEKSNIMKCLGAEIVRTPTEAAWNDENSHMGVAAKLQRELENAHILDQYNNTANPMVHYDVTAEEIITQCDGDIDMVVIGAGTGGTITGIGRKIKERCPKCKVVGVDPKGSILAVPDSLNDEKRLQSYEVEGIGYDFVPGVLDRKVVDEWVKVGDAESFTTARAIIRNEGLFVGGSSGANVWGALQAARQLKKGQKCVVLLPDSSRNYMSKFISDEWMAEHGFAPEDGAKVKEREKQFGGARIRDLLSETGATSDVPFVTARLSVEDVIKMMHETKVKEVIVTEDSEADGKTKLVGVLSEDHIAHSLQSGRCAMQSPVKDIAFKKLAKALPSAYLRDVAKALDFSPYVCVMDEKPSTKKQAGMGEHERAKISLRKAGNSRECPHFLGVITRIDLLHWLATKQK
modifications: PLP bound to active site Lys56 (internal aldimine)
notes: Cystathionine β-synthase, Toxoplasma gondii strain ME49, gene TGME49_259180 (ToxoDB), complete cDNA as a synthetic gene; 514 amino acids (55.8 kDa); Cloned into pET21a (NdeI/BamHI); Mainly a dimer in solution, with some higher-order oligomers (e.g. tetramer); also called TgCBS; T. gondii CBS; source: E. coli Rosetta (DE3), purified (Ni-sepharose)
As to B2, the “stoichiometry N” value in series [11] is 2 and 4.
